According to patent publication US20220380473A1, “ANTI-GAL3 ANTIBODIES AND USES THEREOF” (TrueBinding, Inc., priority 2019, published 2022):
Entries after “also recorded” stand apart in the source; their conditions may differ.

Columns and labels:
[1] = tested on: MBT-2 cells; assay: MBT-2 bladder tumor model, combination with anti-PD1 or anti-PD-L1; type: in vivo, mouse; conditions: 20 mg/Kg i.p.
Method: To evaluate the potential for GAL3-TIM3 blocking antibodies to influence tumor biology, studies were conducted in mice bearing MBT-2 bladder tumor xenografts in combination with other antibodies targeting the immunomodulatory checkpoint molecules PD-1 and PD-L1. Briefly, 7-week old female C3H/HeJ mice (Jackson Laboratory) were anesthetized by inhalation anesthetic (3 to 5% Isoflurane in medical grade air) and 1×10^6 MBT-2 cells (Sekisui XenoTech, LLC) in 0.1 mL PBS were subcutaneously injected into the right flank by using a syringe with a 25-ga needle. 7 days after tumor implantation, mice were randomly assigned into six groups (n=9-10). Mice were administrated intraperitoneally with isotype control mIgG2b (BioXCell), anti-Gal3 (mIMT001), anti-PD1 (RMP1-14, BioXCell) plus mIgG2b, anti-PD1 (RMP1-14) plus mIMT001, anti-PDL1 (10F.9G2, BioXCell) plus mIgG2b, and anti-PDL1 (10F.9G2) plus mIMT001. Isotype control and anti-Gal3 antibodies were dosed at 20 mg/Kg on day 7, 9, 12, 14 and 16; anti-PD1 (RMP1-14 10 mg/Kg) or anti-PDL1 (10F.9G2, 5 mg/Kg) were dosed on day 8, 12, and 15. Tumor volumes and body weights were monitored twice per week. The animals were humanely sacrificed when tumor volumes or animal health reached IACUC-defined endpoints. Results were expressed as mean±SEM, with statistical analysis performed by two-way ANOVA.

[2] = tested on: Renca cells; assay: Primary mouse Renca renal tumor model; type: in vivo; conditions: vs isotype control
Method: On the day of tumor implantation, mice were anesthetized by inhalation anesthetic (3 to 5% Isoflurane in medical grade air), Renca cells were washed and resuspended in PBS before subcutaneously injecting 2×10^5 cells in 0.1 mL, PBS using a syringe with a 25-ga needle. […] The animals were humanely sacrificed when tumor volume in the control group reached between 2000-2500 mm^3. Results were expressed as mean±SEM. The statistical analysis was performed in comparison with IgG2b control group using unpaired t test.

[3] = molecular target: human Gal3-His (Homo sapiens, UniProt P17931); assay: Antibody binning by biolayer interferometry (Gator); type: binding; conditions: antibody competition
human Gal3-His, sequence (P17931 whole entry): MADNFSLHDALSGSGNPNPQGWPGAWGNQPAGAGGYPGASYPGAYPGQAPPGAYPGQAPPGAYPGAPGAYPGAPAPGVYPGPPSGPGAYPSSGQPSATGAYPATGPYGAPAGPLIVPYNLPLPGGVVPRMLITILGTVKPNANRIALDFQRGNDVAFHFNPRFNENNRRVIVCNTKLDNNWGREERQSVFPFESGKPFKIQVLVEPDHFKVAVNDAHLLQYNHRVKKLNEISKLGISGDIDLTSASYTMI
Method: To determine whether Gal3-binding antibodies with Gal3-TIM3 blocking activity bind to the same or overlapping regions of the Gal3 molecule, antibody binning assays were performed to assess the ability of antibodies to simultaneously bind Gal3. Amine-reactive probes were loaded onto a Gator biosensor (Probe Life, Palo Alto, Calif.), equilibrated in dH20 for 60 seconds, dipped into 100 μl EDC 0.2M/NHS 0.05M activation buffer for 30 seconds, then dipped into a solution of […] human Gal3-His in 10 mM NaOAc buffer, pH 5 until binding was saturated, and quenched in 1 M ethanolamine pH 8.5 for 300 seconds. Following Gal3-His loading, tips were dipped in 20 μg/mL saturating antibody, then successively dipped into 5 μg/mL competing antibody.

[4] = tested on: MCD mouse model of liver fibrosis; assay: Methionine-choline deficient (MCD) mouse model of liver fibrosis; type: in vivo
From the text: To further investigate the ability of GAL3-TIM3 blocking antibodies to influence liver fibrosis, the methionine-choline deficient (MCD) mouse model of liver fibrosis was employed. Briefly, Six-week-old male C57Bl/6 mice (Jackson Laboratory) were fed either a normal diet (Envigo, #2020X; n=5 mice); or MCD diet (Fisher Scientific, #MP296043910, n=25) for 8 weeks and continuously through the remainder of the study. Mice were divided into three groups (7 mice each) and randomized based on ALT score. Group 1 and 2 were treated mouse anti-mIgG2aLala isotype control (mISO, 10 mg/kg) or mouse anti-Gal3 antibody (mIMT001, 10 mg/kg) twice a week of IP injection for 4 weeks, at which time animals were sacrificed and liver specimens were collected, fixed in 4% paraformaldehyde (Electron Microscopy Sciences, Cat #15710S) for 24 hours, transferred to 70% EtOH for 72 hours, and samples were subsequently embedded in paraffin. […] Brightfield images were acquired under a Revolve microscope (Discover Echo, Inc.).
To assess fibrosis in these specimens, tissue sections were evaluated for the deposition of fibrotic collagen deposits by picosirius red staining. Briefly, after deparaffinization, liver specimens from isotype control- or IMT001-treated MCD mice were rehydrated in serial ethanol baths, sections were stained in 0.01% Fast green FCF Solution (Cat #1.04022.0025 MilliporeSigma) in saturated picric aqueous solution for 15 minutes at room temperature, followed by 1 h incubation at room temperature in 0.04% Fast green FCF/0.1% Sirius red in saturated picric aqueous solution, prior to their dehydration, clearing and mounting. Images were quantitated using ImageJ software (Rasband, W. S., ImageJ, U. S. National Institutes of Health, Bethesda, Md., USA, world wide web.imagej.nih.gov/ij/)

[5] = tested on: B16F10 cells
Method: The animal experiments were conducted according to a protocol approved by the Molecular Medicine Research Institute Institutional Animal Care and Use Committee. C57BL/6 mice were placed in a facility accredited by the Association for Assessment and Accreditation of Laboratory Animal Care upon arrival. Thirty six of 7-week old female mice were randomly assigned into three groups (n=12). On day 0, B16F10 cells (2×10^5 in 0.1 mL PBS) were washed and resuspended in PBS before injection into the tail veins of mice using a syringe with a 27-ga needle. […] On day 21, the animals were humanely sacrificed and lung tissues were removed and fixed in a 10% buffered formaldehyde solution. The number of black metastatic colonies on one surface of the left lobes in the lungs were counted (FIG. 7B). Results were expressed as mean±SEM. The statistical analysis was performed in comparison with IgG control group using one-way ANOVA.

[6] = tested on: B16F10 cells; assay: Immune profiling in B16F10 lung metastasis mice; type: in vivo, mouse; conditions: 10 mg/kg I.P., day 8, vs isotype control
Method: Mice were implanted with 1 million B16F10 cells I.V. Mice were then treated with IMT001 or isotype control (10 mg/kg I.P.) on Day 0, 1, 3 and 7 and sacrificed on day 8 for lung immune cell isolation and phenotyping. Cells were isolated from the lungs, and then stained with fluorescently labeled antibodies against lymphocyte markers CD3, CD4, CD8, CD19, DX5 and analyzed by flow cytometry.

[7] = 10 mg/kg twice a week IP for 4 weeks

Bin [3]: 1
B1: IMT001: anti-Gal3 monoclonal antibody (Immutics); printed as mIMT001 (IMT001), murine (antibody, V domains shown)
VH: QIQLVQSGPELKKPGETVKISCKASGYTFTNYGMNWVKQAPGKGLKWMGWINTNTGEPTYVEEFKGRFAFSLETSASTAYLQINNLKNEDTATYFCAPYDNFFAYWGQGTLVTVSA
VL: DIVITQDELSNPVTSGESVSISCRSSKSLLYKDGKTYLNWFLQRPGQSPQLLIYLMSTHASGVSDRFSGSGSGTDFTLEISRVKAEDVGVYYCQQLVDYPLTFGAGTKLELK
effect on tumor volume, single agent [1]: did not exhibit any significant decrement in tumor volume; also recorded: did not reduce tumor volumes | reduction of tumor growth ([2]; 10 mg/Kg i.p.): about 35% | effect on tumor size [2]: much reduced tumor size | apoptotic ballooning cells, image-based quantification [4, 7]: 0.98 | infiltrating lobular immune cells, image-based quantification [4, 7]: 0.73 | steatosis, image-based quantification [4, 7]: 1 | NAS score ([4]; integrated score): 2.72 | picosirius red staining, % of the tissue area ([4]; liver sections): 1.25% | reduction of ballooning ([4]; vs control-treated): 27% | reduction of lobular immune cells ([4]; vs control-treated): 59% | reduction of steatosis ([4]; vs control-treated): 15% | reduction of NAS score ([4]; vs isotype control): 43% | reduction of picosirius red staining ([4]; vs isotype control): 71% | reduction of tumor number (black metastatic colonies) ([5]; 10 mg/Kg i.p., day 21, vs isotype control): about 46% | anti-tumor effect, tumor number ([5]; 10 mg/Kg i.p., vs isotype control): significant reduction of tumor number | tumor burden as indicated by lung weight ([5]; vs isotype control): much less tumor burden | number of immune effector cells in lungs (CD3, CD4, CD8, CD19, DX5) [6]: increased the number of various immune effector cell
